From patent US20220389118A1 (Chugai, published 2022)
Where two headings read alike, the source gives them in different places.

T1: soluble human IL-6 receptor (human, UniProt P08887 20-357)
T1 construct: also called hsIL-6R
T1 sequence: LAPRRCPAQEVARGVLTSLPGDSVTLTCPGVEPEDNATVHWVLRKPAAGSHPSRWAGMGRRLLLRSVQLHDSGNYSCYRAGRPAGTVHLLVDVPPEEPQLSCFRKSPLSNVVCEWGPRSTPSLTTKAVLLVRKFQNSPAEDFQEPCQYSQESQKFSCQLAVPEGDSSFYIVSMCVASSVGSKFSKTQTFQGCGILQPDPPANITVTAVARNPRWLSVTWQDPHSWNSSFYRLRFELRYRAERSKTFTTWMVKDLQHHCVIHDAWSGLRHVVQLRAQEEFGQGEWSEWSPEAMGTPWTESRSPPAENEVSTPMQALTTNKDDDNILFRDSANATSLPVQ

T2: human FcγRIIb extracellular domain with C-terminal His tag (human, UniProt P31994 43-217)
T2 construct: extracellular domain; also called FcgRIIb
T2 sequence (looked up): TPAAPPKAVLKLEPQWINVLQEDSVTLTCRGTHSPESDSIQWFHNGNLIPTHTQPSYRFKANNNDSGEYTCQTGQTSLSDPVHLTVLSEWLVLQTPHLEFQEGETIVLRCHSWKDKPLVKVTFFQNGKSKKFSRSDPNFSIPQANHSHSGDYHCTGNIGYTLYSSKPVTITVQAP

T3: human FcγRIIb extracellular domain with C-terminal His tag (human, UniProt P31994 43-217)
T3 construct: extracellular domain
T3 sequence (looked up): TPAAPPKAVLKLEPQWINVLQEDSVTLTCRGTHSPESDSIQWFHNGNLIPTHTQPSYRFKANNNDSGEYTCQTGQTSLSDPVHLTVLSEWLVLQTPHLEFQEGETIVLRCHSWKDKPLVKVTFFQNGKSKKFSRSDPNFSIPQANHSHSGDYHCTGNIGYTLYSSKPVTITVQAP

T4: human FcγRIIa type R extracellular domain with C-terminal His tag (human, UniProt P12318 34-217)
T4 construct: extracellular domain; also called FcγRIIaR; FcγRIIa(R)
T4 sequence (looked up): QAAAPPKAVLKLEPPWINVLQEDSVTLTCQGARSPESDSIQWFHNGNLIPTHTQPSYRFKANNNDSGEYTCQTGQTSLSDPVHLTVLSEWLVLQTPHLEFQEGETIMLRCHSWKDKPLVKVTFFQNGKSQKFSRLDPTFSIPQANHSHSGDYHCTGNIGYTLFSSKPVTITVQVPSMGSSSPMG

T5: human FcγRIIa type H extracellular domain with C-terminal His tag (human, UniProt P12318 34-217)
T5 construct: extracellular domain; also called FcγRIIaH; FcgRIIaH
T5 sequence (looked up): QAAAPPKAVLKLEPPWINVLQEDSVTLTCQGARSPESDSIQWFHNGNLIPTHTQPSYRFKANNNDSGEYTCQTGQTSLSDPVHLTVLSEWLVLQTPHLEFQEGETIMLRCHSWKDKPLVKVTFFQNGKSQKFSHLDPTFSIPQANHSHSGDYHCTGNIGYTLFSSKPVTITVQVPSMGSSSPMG


Key:
[1] = target: T1, soluble human IL-6 receptor; assay: SPR (Biacore T100), antibody captured on a Protein A/G chip (CM5), human IL-6 receptor as analyte, 1.2 mM CaCl2, pH 7.4, 37 °C
Description: The interaction was analyzed in solutions at 1.2 mM and 3 μM calcium ion concentration, corresponding to high and low calcium ion concentration conditions, respectively. An appropriate amount of Protein A/G (Invitrogen) was immobilized onto a Sensor chip CM5 (GE Healthcare) by an amino coupling method, and antibodies of interest were captured onto the chip. The two types of running buffers used were: 20 mM ACES/150 mM NaCl/0.05% (w/v) Tween20/1.2 mM CaCl₂ (pH 7.4); and 20 mM ACES/150 mM NaCl/0.05% (w/v) Tween20/3 μM CaCl₂ (pH 7.4). These buffers were each used to dilute human IL-6 receptor. All measurements were carried out at 37° C.
Then, 10 mM glycine-HCl (pH 1.5) was injected at a flow rate of 30 μl/min for 30 seconds to regenerate the sensor chip.

[2] = target: T2, human FcγRIIb extracellular domain with …; assay: SPR (Biacore)
[3] = target: T3, human FcγRIIb extracellular domain with …; assay: SPR (Biacore); worded summary of Table 28
[4] = target: T4, human FcγRIIa type R extracellular …; assay: SPR (Biacore); worded summary of Table 28
[5] = target: T3, human FcγRIIb extracellular domain with …; assay: SPR (Biacore), parent IL6R-B3/IL6R-L
[6] = target: T4, human FcγRIIa type R extracellular …; assay: SPR (Biacore), parent IL6R-B3/IL6R-L
[7] = target: T3, human FcγRIIb extracellular domain with …; assay: SPR (Biacore)
[8] = target: T4, human FcγRIIa type R extracellular …; assay: SPR (Biacore)
[9] = target: T6, human FcγRIa extracellular domain with C-terminal His tag (human, UniProt P12314 16-292); assay: SPR (Biacore)
T6 construct: extracellular domain
T6 sequence (P12314 16-292): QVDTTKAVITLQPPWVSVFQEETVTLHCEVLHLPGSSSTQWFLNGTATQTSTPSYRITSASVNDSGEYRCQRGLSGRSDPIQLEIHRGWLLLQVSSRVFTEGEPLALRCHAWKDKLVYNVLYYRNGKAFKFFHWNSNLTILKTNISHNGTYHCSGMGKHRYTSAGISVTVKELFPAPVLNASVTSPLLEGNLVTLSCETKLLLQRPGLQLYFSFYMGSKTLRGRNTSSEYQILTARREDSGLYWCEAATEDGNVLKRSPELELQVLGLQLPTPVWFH

[10] = target: T3, human FcγRIIb extracellular domain with …; assay: SPR (Biacore), ratio of KDs
[11] = target: T7, human FcγRIIIa type V extracellular domain with C-terminal His tag (human, UniProt P08637 17-208); assay: SPR (Biacore)
T7 construct: extracellular domain; also called FcγRIIIaV; FcgRIIIaV
T7 sequence (P08637 17-208 F176V): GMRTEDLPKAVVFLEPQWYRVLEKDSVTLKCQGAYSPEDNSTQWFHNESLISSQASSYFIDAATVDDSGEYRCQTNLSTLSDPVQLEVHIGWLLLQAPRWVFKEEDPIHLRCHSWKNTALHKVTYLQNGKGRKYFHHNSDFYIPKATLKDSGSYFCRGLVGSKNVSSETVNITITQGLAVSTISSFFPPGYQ

[12] = target: T5, human FcγRIIa type H extracellular …; assay: SPR (Biacore)

binding result [1]	FcγRIIb-binding activity as compared to IL6R-B3/IL6R-L [3]	FcγRIIaR binding as compared to IL6R-B3/IL6R-L [4]	KD(IIb) parent/KD(IIb) altered polypeptide [5]	KD(IIaR) parent/KD(IIaR) altered polypeptide [6]	Kd [7]	Kd [8]	Kd [9]	KD(IIaH)/KD(IIb) [10]	KD(IIaR)/KD(IIb) [10]	Binder	further results
binds										6RC1IgG_019 (antibody, V domains shown) VH: EVQLVQSGAEVKKPGSSVKVSCKASGGTFSSYAISWVRQAPGQGLEWMGGIIPIFGTANYAQKFQGRVTITADESTSTAYMELSSLRSEDTAVYYCARDRGSGFNWGNYAFDIWGQGFSVTVSS VL: DIQMTQSPSSLSASVGDRVTITCRASQSIEDDLAWYQQKPGKAPKLLIYEASNLQSGVPSRFSGSGSGTDFTLTISSLQPEDFATYYCQQYDRYPYTFGQGTKVEIKR	
	≥ 100 times	≤ 1.5 times	110	0.7	28 nM	1600 nM	1.1 nM	712	58.4	IL6R-BP559/IL6R-L (antibody, human IgG1, kappa, copies: 2 + 2) heavy: QVQLQESGPGLVKPSETLSLTCAVSGHSISHDHAWSWVRQPPGEGLEWIGFISYSGITNYNPSLQGRVTISRDNSKNTLYLQMNSLRAEDTAVYYCARSLARTTAMDYWGEGTLVTVSSASTKGPSVFPLAPSSKSTSGGTAALGCLVKDYFPEPVTVSWNSGALTSGVHTFPAVLQSSGLYSLSSVVTVPSSSLGTQTYICNVNHKPSNTKVDKKVEPKSCDKTHTCPPCPAPELLGGDSVFLFPPKPKDTLMISRTPEVTCVVIDVAEEDGDVKFNWYVDGVEVHNAKTKPREEQDNSTYRVVSVLTVLHQDWLNGKEYKCKVSNKALPAPIEKTISKAKGQPREPQVYTLPPSRDELTKNQVSLTCLVKGFYPSDIAVEWESNGQPENNYKTTPPVLDSDGSFFLYSKLTVDKSRWQQGNVFSCSVMHEALHNHYTQESLSLSP light: not shown	
	≥ 100 times	≤ 1.5 times	128	1.5	24 nM	720 nM	2.3 nM	1030	29.9	IL6R-BP500/IL6R-L (antibody, human IgG1, kappa, copies: 2 + 2) heavy: QVQLQESGPGLVKPSETLSLTCAVSGHSISHDHAWSWVRQPPGEGLEWIGFISYSGITNYNPSLQGRVTISRDNSKNTLYLQMNSLRAEDTAVYYCARSLARTTAMDYWGEGTLVTVSSASTKGPSVFPLAPSSKSTSGGTAALGCLVKDYFPEPVTVSWNSGALTSGVHTFPAVLQSSGLYSLSSVVTVPSSSLGTQTYICNVNHKPSNTKVDKKVEPKSCDKTHTCPPCPAPELLGDDSVFLFPPKPKDTLMISRTPEVTCVVIDVAEEDGEVKFNWYVDGVEVHNAKTKPREEQDNSTYRVVSVLTVLHQDWLNGKEYKCKVSNKALPAPIEKTISKAKGQPREPQVYTLPPSRDELTKNQVSLTCLVKGFYPSDIAVEWESNGQPENNYKTTPPVLDSDGSFFLYSKLTVDKSRWQQGNVFSCSVMHEALHNHYTQESLSLSP light: not shown	

Second part, the binder before the results:

Binder	binding result [1]	FcγRIIb-binding activity as compared to IL6R-B3/IL6R-L [3]	FcγRIIaR binding as compared to IL6R-B3/IL6R-L [4]	KD(IIb) parent/KD(IIb) altered polypeptide [5]	KD(IIaR) parent/KD(IIaR) altered polypeptide [6]	Kd [7]	Kd [8]	Kd [9]	KD(IIaH)/KD(IIb) [10]	KD(IIaR)/KD(IIb) [10]	further results
tocilizumab (antibody, human IgG1, kappa, also called anti-IL-6R antibody (tocilizumab)) heavy: not shown light: not shown	binds										
6RC1IgG_012 (antibody, V domains shown) VH: QVQLVQSGAEVKKPGASVKVSCKASGYTFTSYGISWVRQAPGQGLEWMGWISAYNGNTNYAQKLQGRVTMTTDTSTSTAYMELRSLRSDDTAVYYCARATYYYDSSAPAFDIWGQGTMVTVSS VL: DIQMTQSPSSLSASVGDRVTITCRASQSIEDDLAWYQQKPGKAPKLLIYEASTLQSGVPSRFSGSGSGTDFTLTISSLQPEDFATYYCQQHDDSPLTFGQGTKVEIKR	binds										
6RC1IgG_010 (antibody, V domains shown) VH: QVQLVQSGAEVKKPGSSVKVSCKASGGTFSSYAISWVRQAPGQGLEWMGGIIPIFGTANYAQKFQGRVTITADESTSTAYMELSSLRSEDTAVYYCARAAFLEWPIWGSEYFQHWGQGTLVTVSS VL: DIQMTQSPSSLSASVGDRVTITCRASQSIEDDLAWYQQKPGKAPKLLIYHASSLQSGVPSRFSGSGSGTDFTLTISSLQPEDFATYYCQQRDSYPLTFGQGTKVEIKR	binds										
IL6R-BP130/IL6R-L (antibody, human IgG1, kappa, EU numbering; alterations on IL6R-B3; copies: 2 + 2) heavy: QVQLQESGPGLVKPSETLSLTCAVSGHSISHDHAWSWVRQPPGEGLEWIGFISYSGITNYNPSLQGRVTISRDNSKNTLYLQMNSLRAEDTAVYYCARSLARTTAMDYWGEGTLVTVSSASTKGPSVFPLAPSSKSTSGGTAALGCLVKDYFPEPVTVSWNSGALTSGVHTFPAVLQSSGLYSLSSVVTVPSSSLGTQTYICNVNHKPSNTKVDKKVEPKSCDKTHTCPPCPAPDLLGGDSVFLFPPKPKDTLMISRTPEVTCVVVDVSHEDPEVKFNWYVDGVEVHNAKTKPREEQYNSTYRVVSVLTVLHQDWLNGKEYKCKMSNKALPKPIEKTISKAKGQPREPQVYTLPPSRDELTKNQVSLTCLVKGFYPSDIAVEWESNGQPENNYKTTPPVLDSDGSFFLYSKLTVDKSRWQQGNVFSCSVMHEALHNHYTQESLSLSP light: not shown											Kd [2]: 300 nM
IL6R-BP148/IL6R-L (antibody, human IgG1, kappa, EU numbering; alterations on IL6R-B3; copies: 2 + 2) heavy: QVQLQESGPGLVKPSETLSLTCAVSGHSISHDHAWSWVRQPPGEGLEWIGFISYSGITNYNPSLQGRVTISRDNSKNTLYLQMNSLRAEDTAVYYCARSLARTTAMDYWGEGTLVTVSSASTKGPSVFPLAPSSKSTSGGTAALGCLVKDYFPEPVTVSWNSGALTSGVHTFPAVLQSSGLYSLSSVVTVPSSSLGTQTYICNVNHKPSNTKVDKKVEPKSCDKTHTCPPCPAPDYLGDDSVFLFPPKPKDTLMISRTPEVTCVVVDVSHEDPEVKFNWYVDGVEVHNAKTKPREEQYNSTYRVVSVLTVLHQDWLNGKEYKCKVSNAALPKPIEKTISKAKGQPREPQVYTLPPSRDELTKNQVSLTCLVKGFYPSDIAVEWESNGQPENNYKTTPPVLDSDGSFFLYSKLTVDKSRWQQGNVFSCSVMHEALHNHYTQESLSLSP light: not shown											Kd [11]: 30000 nM; Kd [12]: 7000 nM
IL6R-BP492/IL6R-L (antibody, human IgG1, kappa, copies: 2 + 2) heavy: QVQLQESGPGLVKPSETLSLTCAVSGHSISHDHAWSWVRQPPGEGLEWIGFISYSGITNYNPSLQGRVTISRDNSKNTLYLQMNSLRAEDTAVYYCARSLARTTAMDYWGEGTLVTVSSASTKGPSVFPLAPSSKSTSGGTAALGCLVKDYFPEPVTVSWNSGALTSGVHTFPAVLQSSGLYSLSSVVTVPSSSLGTQTYICNVNHKPSNTKVDKKVEPKSCDKTHTCPPCPAPELLGGDSVFLFPPKPKDTLMISRTPEVTCVVIDVAEEDGEVKFNWYVDGVEVHNAKTKPREEQYNSTYRVVSVLTVLHQDWLNGKEYKCKVSNKALPAPIEKTISKAKGQPREPQVYTLPPSRDELTKNQVSLTCLVKGFYPSDIAVEWESNGQPENNYKTTPPVLDSDGSFFLYSKLTVDKSRWQQGNVFSCSVMHEALHNHYTQESLSLSP light: not shown		≥ 100 times	≤ 1.5 times	131	1.2	24 nM	920 nM	0.79 nM	678	38.8	
